{
  "source": "paper PMC8083718",
  "origin": "cited, not measured here",
  "molecular_target": "ACE2 (Homo sapiens) (UniProt Q9BYF1)",
  "sequence (Q9BYF1 18-740)": "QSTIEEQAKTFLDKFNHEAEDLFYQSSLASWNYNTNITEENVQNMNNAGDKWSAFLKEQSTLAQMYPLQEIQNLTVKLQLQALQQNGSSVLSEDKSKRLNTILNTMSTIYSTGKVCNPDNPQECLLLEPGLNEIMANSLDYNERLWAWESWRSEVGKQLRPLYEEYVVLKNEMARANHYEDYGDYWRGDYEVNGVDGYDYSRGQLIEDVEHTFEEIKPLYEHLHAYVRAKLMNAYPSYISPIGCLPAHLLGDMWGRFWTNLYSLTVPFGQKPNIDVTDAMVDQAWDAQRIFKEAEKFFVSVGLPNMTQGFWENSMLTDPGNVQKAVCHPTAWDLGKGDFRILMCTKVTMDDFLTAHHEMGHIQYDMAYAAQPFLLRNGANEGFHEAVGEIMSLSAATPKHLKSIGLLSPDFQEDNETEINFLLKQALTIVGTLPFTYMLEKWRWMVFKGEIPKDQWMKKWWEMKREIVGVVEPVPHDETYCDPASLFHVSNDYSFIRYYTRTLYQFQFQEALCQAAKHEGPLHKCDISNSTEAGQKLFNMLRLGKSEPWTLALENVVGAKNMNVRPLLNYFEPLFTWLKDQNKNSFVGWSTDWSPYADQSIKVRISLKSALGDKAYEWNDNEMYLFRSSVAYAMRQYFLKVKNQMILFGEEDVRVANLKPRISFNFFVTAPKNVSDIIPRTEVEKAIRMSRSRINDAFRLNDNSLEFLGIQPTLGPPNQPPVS",
  "data": [
    {"substance": "spike protein (from UniProt P59594)", "values": [
      {"measurement": "Kd", "result": 0.12, "unit": "nM"}
    ]}
  ]
}
